Assays:
[1] = biological target: yeast COMPASS catalytic module (Set1-Swd1-Swd3-Bre2-Sdc1) (Kluyveromyces lactis, UniProt Q6CIT4); assay: H3K4 methylation of nucleosomes, western blot; type: biochemical; details: 0.2 mM SAM, 1 uM enzyme, 0.5 uM nucleosomes, pH 7.5, 30 C, 30 min
[2] = biological target: K. lactis Bre2 (crystallised construct) (K. lactis); assay: crystal structure
[3] = biological target: K. lactis Sdc1 (crystallised construct) (K. lactis); assay: crystal structure

| stoichiometry N [2] | stoichiometry N [3] | Molecule | H3K4 methylation of nucleosomes, western blot [1] |
| --- | --- | --- | --- |
|  |  | C[S+](CC[C@H](N)C(=O)O)C[C@H]1O[C@@H](n2cnc3c(N)ncnc32)[C@H](O)[C@@H]1O (stereo partly drawn) [SAM] | alanine mutation of Trp197 drastically compromised the catalytic activity of Set1 |
| 2 | 2 | K. lactis Sdc1 (crystallised construct) (natural protein) |  |

From article PMC6108940 (Cell, 2018)
